# B1: Homeobox protein SIX1 (Homo sapiens), Q15475 (parent)
# chain: MSMLPSFGFTQEQVACVCEVLQQGGNLERLGRFLWSLPACDHLHKNESVLKAKAVVAFHRGNFRELYKILESHQFSPHNHPKLQQLWLKAHYVEAEKLRGRPLGAVGKYRVRRKFPLPRTIWDGEETSYCFKEKSRGVLREWYAHNPYPSPREKRELAEATGLTTTQVSNWFKNRRQRDRAAEAKERENTENNNSSSNKQNQLSPLEGGKPLMSSSEEEFSPPQSPDQNSVLLLQGNMGHARSSNYSLPGLTASQPSHGLQTHQHQLQDSLLGPLTSSLVDLGS
# partner: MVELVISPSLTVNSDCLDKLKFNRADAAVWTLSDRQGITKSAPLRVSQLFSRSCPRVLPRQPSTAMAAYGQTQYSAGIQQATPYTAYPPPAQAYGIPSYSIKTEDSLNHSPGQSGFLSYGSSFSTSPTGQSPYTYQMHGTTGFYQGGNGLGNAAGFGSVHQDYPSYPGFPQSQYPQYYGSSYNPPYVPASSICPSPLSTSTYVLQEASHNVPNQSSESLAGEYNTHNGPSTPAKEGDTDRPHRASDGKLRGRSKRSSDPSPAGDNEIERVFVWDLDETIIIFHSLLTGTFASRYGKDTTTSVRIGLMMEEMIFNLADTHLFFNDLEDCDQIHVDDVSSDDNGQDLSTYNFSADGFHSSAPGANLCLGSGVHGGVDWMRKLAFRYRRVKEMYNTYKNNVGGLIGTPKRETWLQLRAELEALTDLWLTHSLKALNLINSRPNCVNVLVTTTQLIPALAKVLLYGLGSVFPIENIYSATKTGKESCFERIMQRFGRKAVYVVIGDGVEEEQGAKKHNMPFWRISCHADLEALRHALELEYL
# B2: Protein phosphatase EYA2 (Homo sapiens), O00167-1 (parent)
# chain: B1 partner
# partner: B1 chain
# Variants of: B1
# Conditions: with EYA2, O00167-1
row,effect of a mutation on the interaction,Variant
1,disrupting interaction strength,MSMLPSFGFTQEQVARVCEVLQQGGNLERLGRFLWSLPACDHLHKNESVLKAKAVVAFHRGNFRELYKILESHQFSPHNHPKLQQLWLKAHYVEAEKLRGRPLGAVGKYRVRRKFPLPRTIWDGEETSYCFKEKSRGVLREWYAHNPYPSPREKRELAEATGLTTTQVSNWFKNRRQRDRAAEAKERENTENNNSSSNKQNQLSPLEGGKPLMSSSEEEFSPPQSPDQNSVLLLQGNMGHARSSNYSLPGLTASQPSHGLQTHQHQLQDSLLGPLTSSLVDLGS [C16R]

# Variants of: B2
# Conditions: with six1_human SIX1, Q15475
row,effect of a mutation on the interaction,Variant
1,disrupting interaction strength,MVELVISPSLTVNSDCLDKLKFNRADAAVWTLSDRQGITKSAPLRVSQLFSRSCPRVLPRQPSTAMAAYGQTQYSAGIQQATPYTAYPPPAQAYGIPSYSIKTEDSLNHSPGQSGFLSYGSSFSTSPTGQSPYTYQMHGTTGFYQGGNGLGNAAGFGSVHQDYPSYPGFPQSQYPQYYGSSYNPPYVPASSICPSPLSTSTYVLQEASHNVPNQSSESLAGEYNTHNGPSTPAKEGDTDRPHRASDGKLRGRSKRSSDPSPAGDNEIERVFVWDLDETIIIFHSLLTGTFASRYGKDTTTSVRIGLMMEEMIFNLADTHLFFNDLEDCDQIHVDDVSSDDNGQDLSTYNFSADGFHSSAPGANLCLGSGVHGGVDWMRKLAFRYRRVKEMYNTYKNNVGGLIGTPKRETWLQLRAELEALTDLWLTHSLKALNLINSRPNCVNVLVTTTQLIPALAKVLLYGLGSVFPIENIYSATKTGKESCFERIMQRFGRKAVYVVIGDGVEEEQGAKKHNMPFWRISCHADLEALRHRLELEYL [A532R]
2,decreasing interaction strength,MVELVISPSLTVNSDCLDKLKFNRADAAVWTLSDRQGITKSAPLRVSQLFSRSCPRVLPRQPSTAMAAYGQTQYSAGIQQATPYTAYPPPAQAYGIPSYSIKTEDSLNHSPGQSGFLSYGSSFSTSPTGQSPYTYQMHGTTGFYQGGNGLGNAAGFGSVHQDYPSYPGFPQSQYPQYYGSSYNPPYVPASSICPSPLSTSTYVLQEASHNVPNQSSESLAGEYNTHNGPSTPAKEGDTDRPHRASDGKLRGRSKRSSDPSPAGDNEIERVFVWDLDETIIIFHSLLTGTFASRYGKDTTTSVRIGLMMEEMIFNLADTHLFFNDLEDCDQIHVDDVSSDDNGQDLSTYNFSADGFHSSAPGANLCLGSGVHGGVDWMRKLAFRYRRVKEMYNTYKNNVGGLIGTPKRETWLQLRAELEALTDLWLTHSLKALNLINSRPNCVNVLVTTTQLIPALAKVLLYGLGSVFPIENIYSATKTGKESCFERIMQRFGRKAVYVVIGDGVEEEQGAKKHNMRFWRISCHADLEALRHALELEYL [P516R]

# Source: IntAct's records for PubMed 23435380
